Measurements reported in patent US20220265806A1.

Biological target: E1′ (CHIKV E1 ectodomain construct) (Chikungunya virus)

Q: With chCHK-166^pMAZ (antibody) as the substance, how does the EC50 read?
A: 2.2 nM
